According to the PETadex activity labels (doi:10.1016/s0021-9258(17)37371-4):
Changes are numbered by the printed parent chain.

B1: unnamed (protein)
chain: MRPPQCLLHTPSLASPLLLLLLWLLGGGVGAEGREDAELLVTVRGGRLRGIRLKTPGGPVSAFLGIPFAEPPMGPRRFLPPEPKQPWSGVVDATTFQSVCYQYVDTLYPGFEGTEMWNPNRELSEDCLYLNVWTPYPRPTSPTPVLVWIYGGGFASGASSLDVYDGRFLVQAERTVLVSMNYRVGAFGFLALPGSREAPGNVGLLDQRLALQWVQENVAAFGGDPTSVTLFGESAGAASVGMHLLSPPSRGLFHRAVLQSGAPNGPWATVGMGEARRRATQLAHLVGCPPGGTGGNDTELVACLRTRPAQVLVNHEWHVLPQESVFRFSFVPVVDGDFLSDTPEALINAGDFHGLQVLVGVVKDEGSYFLVYGAPGFSKDNESLISRAEFLAGVRVGVPQVSDLAAEAVVLHYTDWLHPEDPARLREALSDVVGDHNVVCPVAQLAGRLAAQGARVYAYVFEHRASTLSWPLWMGVPHGYEIEFIFGIPLDPSRNYTAEEKIFAQRLMRYWANFARTGDPNEPRDPKAPQWPPYTAGAQQYVSLDLRPLEVRRGLRAQACAFWNRFLPKLLSATDTLDEAERQWKAEFHRWSSYMVHWKNQFDHYSKQDRCSDL
B2: unnamed (protein)
chain: B1 chain with E316A, W317A
B3: unnamed (protein)
chain: B1 chain with A155Y
B4: unnamed (protein)
chain: B1 chain with A155Y, F369A

The proteins below were run on Acetylcholine. Details: pH 8; 27 °C.

Protein	Km	kcat	kcat/Km
B1	250 µM	4170 s⁻¹	1.67e+07 M⁻¹ s⁻¹
B2	280 µM	2330 s⁻¹	8.33e+06 M⁻¹ s⁻¹
B3	120 µM	7000 s⁻¹	5.83e+07 M⁻¹ s⁻¹
B4	140 µM	2830 s⁻¹	2.02e+07 M⁻¹ s⁻¹
